These binders were tested against CDC48A-ND1 (a CDC48A construct containing the N and first ATPase domains) (Arabidopsis thaliana, UniProt P54609 1-484) (assay: ITC).
CDC48A-ND1 (a CDC48A construct containing the N and first ATPase domains), sequence (P54609 1-484): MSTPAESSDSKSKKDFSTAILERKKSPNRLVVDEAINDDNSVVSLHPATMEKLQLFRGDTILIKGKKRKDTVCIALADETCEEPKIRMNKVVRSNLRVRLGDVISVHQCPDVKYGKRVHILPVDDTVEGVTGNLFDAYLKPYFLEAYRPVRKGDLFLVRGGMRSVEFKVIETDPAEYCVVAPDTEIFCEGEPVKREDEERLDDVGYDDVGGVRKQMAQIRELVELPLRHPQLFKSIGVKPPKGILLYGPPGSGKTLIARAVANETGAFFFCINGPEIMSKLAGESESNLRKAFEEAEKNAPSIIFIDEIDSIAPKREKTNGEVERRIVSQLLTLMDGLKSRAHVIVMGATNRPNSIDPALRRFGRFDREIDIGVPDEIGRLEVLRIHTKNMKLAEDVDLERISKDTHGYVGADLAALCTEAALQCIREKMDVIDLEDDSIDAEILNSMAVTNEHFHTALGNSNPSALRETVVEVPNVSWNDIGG

Kd | stoichiometry N | Binder
2.7 ± 0.9 µM | ~0.5 | Arabidopsis PUX4 (natural protein, Arabidopsis thaliana, UniProt Q8RWU7 1-303, looked up) MSSKDKKPSKPSSSRGGIRTLSDLNRRSGPDSDSDSDGPQEYYTGGEKSGMLVQDPSKKDDVDEIFNQARQLGAVEGPLEPPPSSRSFTGTGRLLSGENVPTGNQQPEPVVHNIVFWSNGFTIDDGPLRKLDDPENASFLESIRKSECPKELEPADRRAPVHVNLMRKEEKCPERQKRRVSFQGVGRTLGGSNEGSGSSSPVAPDSAPIPIQTEPAPSQSLVIDETVPTTSIQLRLADGTRLVAKFNHHHTVNDIRGFIDSSRPGASLNYQLQTMGFPPKPLTDLTQTIEEAGLANSVVLQKF
12.3 ± 3.7 µM | 1 | P-NAD5_(SHP-UBX) (P-NAD5 with helix1 and the SEP domain deleted) (other) QVQLVESGGALVQPGGSLRLSCAASGFPVNRYSMRWYRQAPGKEREWVAGMSSAGDRSSYEDSVKGRFTISRDDARNTVYLQMNSLKPEDTAVYYCNVNVGFEYWGQGTQVTVSSEPPKPKNPFQGVGRTLGASGSGSSSAPQASSAPMNVAPAPSRGLVVDPAAPTTSIQLRLADGTRLVSRFNNHHTVRDVRGFIDASRPGGSKEYQLLTMGFPPKQLTELDQTIEQAGIANAVVIQKF
5.6 ± 1.6 µM | ~0.5 | Arabidopsis PUX3 (natural protein, Arabidopsis thaliana, UniProt Q9SUG6 1-302, looked up) MSSKDKKLSKPTSGRTGGIRTLSDLNRRSEPDSDSDSDGPQEYFTGGEKSGMLVQDPTKEPKHDDVDEIFNQARQLGAVEGPLEHPSSSRSFTGTGRLLSGESVPTALQQPEPVIHNIIFWSNGFTVDDGPLRKLDDPENASFLDSIRKSECPKELEPVDKRAPVHVNLMRRDEKCPEKEKLKVSFQGVGRTLGGASSSTASSQSNLTDVAAVQSPLQSLVVDETLPSTSIQLRLADGTRMVAKFNNHHTVNDIRGFIEFSRPGNPNNYTLQVMGFPPKPLTDPSQTIEQAGLASSVVIQKF

From paper PMC11315185 (Heliyon, 2024)
